According to the supplement of paper PMC7125110:
± gives the standard error. For some of these results: Fewer inactive variants are shown than the library holds.

B1: glmS ribozyme (parent)
chain: AUAAAAGCGCCAGAACUACAGAAAUGUAGUUGACGAGGAGGAGGUUUAUCGAAUUUUCGGCGGAUGCCUCCAAA

Legend:
Settings in all cases: with glucosamine-6-phosphate
glucosamine-6-phosphate [1] = variants of: B1; assay: kcat; higher = faster cleavage; RNA array
Summary of the method: (§1)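 Tiles bearing barcoded ribozyme variants, transcribed in situ by E. coli RNA polymerase on sequenced MiSeq chips, were imaged over ~14 h at 37 °C using a hybridised Cy3 probe. Glucosamine-6-phosphate was supplied at 40 μM to 10 mM in HEPES/KCl/Mg(OAc)2 buffer. kobs came from one- or two-exponential decay fits to normalised per-tile medians, and weighted Michaelis–Menten fits then provided kcat and KM.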

glucosamine-6-phosphate [2] = variants of: B1; assay: self-cleavage kobs at 2500 uM GlcN6P; higher = faster cleavage; RNA array
Summary of the method: as §1

glucosamine-6-phosphate [3] = variants of: B1; assay: KM; higher = weaker cofactor use; RNA array
Summary of the method: as §1

glucosamine-6-phosphate [4] = variants of: B1; assay: self-cleavage kobs at 10000 uM GlcN6P; higher = faster cleavage; RNA array
Summary of the method: as §1

glucosamine-6-phosphate [5] = variants of: B1; assay: self-cleavage kobs at 40 uM GlcN6P; higher = faster cleavage; RNA array
Summary of the method: as §1

glucosamine-6-phosphate [6] = variants of: B1; assay: self-cleavage kobs at 160 uM GlcN6P; higher = faster cleavage; RNA array
Summary of the method: as §1

glucosamine-6-phosphate [7] = variants of: B1; assay: self-cleavage kobs at 640 uM GlcN6P; higher = faster cleavage; RNA array
Summary of the method: as §1

Variant	kcat (glucosamine-6-phosphate [1])	self-cleavage kobs at 2500 uM GlcN6P (glucosamine-6-phosphate [2])	KM (glucosamine-6-phosphate [3])	self-cleavage kobs at 10000 uM GlcN6P (glucosamine-6-phosphate [4])	self-cleavage kobs at 40 uM GlcN6P (glucosamine-6-phosphate [5])	self-cleavage kobs at 160 uM GlcN6P (glucosamine-6-phosphate [6])	self-cleavage kobs at 640 uM GlcN6P (glucosamine-6-phosphate [7])
U57A U69A	3.14e-05 ± 6.3e-06 s⁻¹	3.75e-05 ± 1.1e-05 s⁻¹					
C58U C68U	6.04e-05 ± 7.7e-06 s⁻¹	2.71e-05 ± 8.5e-06 s⁻¹	2460 ± 1000 µM	4.92e-05 ± 7.3e-06 s⁻¹			
G60A U69G	1.18e-05 ± 5e-06 s⁻¹						
U65A C68U	0.000403 ± 0.00012 s⁻¹	0.000287 ± 4.2e-05 s⁻¹		0.000655 ± 8.7e-05 s⁻¹	3.81e-05 ± 8.7e-06 s⁻¹	0.000111 ± 1.8e-05 s⁻¹	0.000186 ± 2.8e-05 s⁻¹
G59C U69A	2.45e-05 ± 5.3e-06 s⁻¹						
G59C U69G	1.85e-05 ± 5.2e-06 s⁻¹				< 1e-05 s⁻¹		
C58G U65G	< 1e-05 s⁻¹						
C58A A64G	0.000405 ± 6.2e-05 s⁻¹	0.000214 ± 2.8e-05 s⁻¹	1920 ± 510 µM	0.000399 ± 8.1e-05 s⁻¹		3.91e-05 ± 1.1e-05 s⁻¹	0.0001 ± 1.5e-05 s⁻¹
G60A G66C	< 1e-05 s⁻¹	< 1e-05 s⁻¹		< 1e-05 s⁻¹			< 1e-05 s⁻¹
C61A U65G C67U	2.68e-05 ± 7.3e-06 s⁻¹						
G62A C70A	4.15e-05 ± 2e-05 s⁻¹				< 1e-05 s⁻¹		7.27e-05 ± 2.4e-05 s⁻¹
G62A C70G	4.83e-05 ± 2.2e-05 s⁻¹			< 1e-05 s⁻¹	< 1e-05 s⁻¹		4.71e-05 ± 1.5e-05 s⁻¹
G60C C71A	< 1e-05 s⁻¹				< 1e-05 s⁻¹		
U65A C67U	0.00212 ± 0.00035 s⁻¹	0.00117 ± 0.00013 s⁻¹	1260 ± 320 µM	0.00225 ± 0.00023 s⁻¹	7.1e-05 ± 8.1e-06 s⁻¹	0.00022 ± 2.8e-05 s⁻¹	0.000793 ± 8.5e-05 s⁻¹
U65A C67G	0.000463 ± 7.8e-05 s⁻¹	0.000422 ± 6.2e-05 s⁻¹	958 ± 270 µM	0.000386 ± 6.4e-05 s⁻¹	2.9e-05 ± 8.7e-06 s⁻¹	6.44e-05 ± 9.1e-06 s⁻¹	0.000173 ± 2.2e-05 s⁻¹
A64G C71A	0.000799 ± 8.2e-05 s⁻¹	0.00059 ± 7.4e-05 s⁻¹	1410 ± 280 µM	0.000652 ± 7.6e-05 s⁻¹		7.29e-05 ± 1.4e-05 s⁻¹	0.000265 ± 3.8e-05 s⁻¹
U57A C58A	4.9e-05 ± 5.6e-06 s⁻¹	4.44e-05 ± 1.1e-05 s⁻¹		4.41e-05 ± 9.8e-06 s⁻¹			
U57A C70U	0.000272 ± 5.5e-05 s⁻¹	0.000133 ± 1.9e-05 s⁻¹	2300 ± 790 µM	0.000234 ± 3.8e-05 s⁻¹		5.07e-05 ± 2.3e-05 s⁻¹	5.92e-05 ± 7.8e-06 s⁻¹
U57A C70A	1.98e-05 ± 3.5e-06 s⁻¹						

Variant	kcat (glucosamine-6-phosphate [1])	self-cleavage kobs at 2500 uM GlcN6P (glucosamine-6-phosphate [2])	KM (glucosamine-6-phosphate [3])	self-cleavage kobs at 10000 uM GlcN6P (glucosamine-6-phosphate [4])	self-cleavage kobs at 40 uM GlcN6P (glucosamine-6-phosphate [5])	self-cleavage kobs at 160 uM GlcN6P (glucosamine-6-phosphate [6])	self-cleavage kobs at 640 uM GlcN6P (glucosamine-6-phosphate [7])
U65C C70G	1.37e-05 ± 3.9e-06 s⁻¹						
U56A A64G	0.0109 ± 0.0032 s⁻¹	0.00654 ± 0.00084 s⁻¹	1640 ± 680 µM	0.0123 ± 0.0025 s⁻¹	0.00036 ± 5.4e-05 s⁻¹	0.000983 ± 0.00014 s⁻¹	0.0025 ± 0.00037 s⁻¹
U57A C61A	1.53e-05 ± 5.7e-06 s⁻¹						
U56C C70A	1.36e-05 ± 2.7e-06 s⁻¹						
U56C C70U	0.000177 ± 5e-06 s⁻¹	0.000111 ± 9.3e-06 s⁻¹	1660 ± 120 µM	0.00015 ± 1e-05 s⁻¹			4.77e-05 ± 6.2e-06 s⁻¹
A64G U69G	4.12e-05 ± 5.6e-06 s⁻¹	4.93e-05 ± 1.2e-05 s⁻¹		3.35e-05 ± 8.6e-06 s⁻¹			4.4e-05 ± 1.2e-05 s⁻¹
A64U C71G	1.96e-05 ± 1.5e-06 s⁻¹						
C58G G66A	5.59e-05 ± 5.7e-06 s⁻¹	5.32e-05 ± 1.5e-05 s⁻¹		5.1e-05 ± 7.9e-06 s⁻¹			
C58G G66C	2.6e-05 ± 1.4e-06 s⁻¹		2200 ± 540 µM				< 1e-05 s⁻¹
U55C U65A	0.00421 ± 0.00073 s⁻¹	0.00204 ± 0.00038 s⁻¹	2040 ± 540 µM	0.00379 ± 0.00046 s⁻¹	0.0001 ± 1.4e-05 s⁻¹	0.00028 ± 7.3e-05 s⁻¹	0.000826 ± 0.00017 s⁻¹
U57C C58G	3.57e-05 ± 4.2e-06 s⁻¹			3.19e-05 ± 1e-05 s⁻¹			
U55G G62U	< 1e-05 s⁻¹			< 1e-05 s⁻¹		< 1e-05 s⁻¹	
C58G A64G	0.000129 ± 2.7e-05 s⁻¹	6.74e-05 ± 1.2e-05 s⁻¹		0.000115 ± 1.7e-05 s⁻¹			6.72e-05 ± 2.7e-05 s⁻¹
A64U G66A C67U	1.79e-05 ± 6.9e-06 s⁻¹				< 1e-05 s⁻¹		
U56A C68A	4.71e-05 ± 1.1e-05 s⁻¹	5.61e-05 ± 1e-05 s⁻¹				5.43e-05 ± 1e-05 s⁻¹	5.74e-05 ± 1e-05 s⁻¹
U56A C68G	7.31e-05 ± 8.9e-06 s⁻¹	6.61e-05 ± 7.6e-06 s⁻¹		6.94e-05 ± 7.3e-06 s⁻¹		6.33e-05 ± 1.2e-05 s⁻¹	0.00011 ± 1.5e-05 s⁻¹
U56A C71A	0.00492 ± 0.0022 s⁻¹	0.00216 ± 0.00042 s⁻¹		0.00398 ± 0.00071 s⁻¹	9.35e-05 ± 1.1e-05 s⁻¹	0.000174 ± 3.4e-05 s⁻¹	0.000881 ± 0.0001 s⁻¹
U65G C70U	0.00416 ± 0.00036 s⁻¹	0.00238 ± 0.00036 s⁻¹	2980 ± 340 µM	0.00315 ± 0.00024 s⁻¹	5.75e-05 ± 5e-06 s⁻¹	0.000203 ± 1.7e-05 s⁻¹	0.000728 ± 6e-05 s⁻¹
U65G C70G	0.000265 ± 5.4e-05 s⁻¹	0.000176 ± 1.3e-05 s⁻¹	1470 ± 600 µM	0.000228 ± 2.3e-05 s⁻¹		4.76e-05 ± 7.4e-06 s⁻¹	7.04e-05 ± 6.8e-06 s⁻¹
